For this assay, the target named is tau seeds in spinal cord homogenates of P301S transgenic mice (aggregated transgenic human tau) (human), P10636. The experiment in a line: cell-based or functional assay.
tau seeds in spinal cord homogenates of P301S transgenic mice (aggregated transgenic human tau) (human), P10636, sequence (P10636 other isoform, or with tags, fused parts or gaps P301S P301S): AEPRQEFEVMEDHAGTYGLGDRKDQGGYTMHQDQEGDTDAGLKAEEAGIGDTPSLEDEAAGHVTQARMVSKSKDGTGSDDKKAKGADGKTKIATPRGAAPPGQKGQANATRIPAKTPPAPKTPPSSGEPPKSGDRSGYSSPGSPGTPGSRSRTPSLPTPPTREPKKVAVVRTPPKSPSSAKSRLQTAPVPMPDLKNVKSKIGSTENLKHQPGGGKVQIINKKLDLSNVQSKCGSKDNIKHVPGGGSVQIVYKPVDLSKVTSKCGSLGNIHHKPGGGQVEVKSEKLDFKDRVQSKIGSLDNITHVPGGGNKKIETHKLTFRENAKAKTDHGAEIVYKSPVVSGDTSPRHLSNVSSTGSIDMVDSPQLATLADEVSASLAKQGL

B1: PT82 mAb, recombinantly expressed (mouse IgG2a/kappa) (antibody, V domains shown)
VH: EVKLEESGGGLVQPGGSMKLSCVASGFTFSNYWMNWIRQSPEKGLEWVAQIRLQSDNYATRYAESVKGRFTISRDESKTSVYLQMNNLRTEDTGIYYCTGGTTYWGQGTLVTVSA
VL: DIVMTQSQKFMSTSVGDRVSITCKASQNVGTAVAWYQQKPGQSPKLLIYSASIRYTGVPDRFTGSGSGTDFTLTINYMQSEDLADYFCQQFSSYPYTFGGGTKLEIK
Take B1: the Tau aggregate induction (K18 aggregate formation, FRET-positive HEK cells counted by FACS) turned out to be 3 nM.

The values are drawn from US20190270793A1.
